Paper PMC4301871 (2015)
Values joined by “and” are separate entries in the source; they are usually repeats but may differ in a detail not shown here. Equal entries are not always repeated.

T1: LATS2 (Homo sapiens)
T1 chain: RRCPPPPYPKHL

T2: LATS1-b (Homo sapiens)
T2 chain: YQGPPPPYPKHL

T3: PTCH1-a (Homo sapiens)
T3 chain: RYSPPPPYSSHS

T4: PTCH1-b (Homo sapiens)
T4 chain: EGLWPPPYRPRR

T5: LATS1-a (Homo sapiens)
T5 chain: NRQPPPPYPLTA

B1: YAP-WW1 165-209 (peptide)
chain: FEIPDDVPLPAGWEMAKTSSGQRYFLNHIDQTTTWQDPRKAMLSQ
B2: YAP-WW2 228-271 (peptide)
chain: ASGPLPDGWEQAMTQDGEIYYINHKNKTTSWLDPRLDPRFAMNQ
B3: YAP-WW1-WW2 165-271 (protein)
chain: FEIPDDVPLPAGWEMAKTSSGQRYFLNHIDQTTTWQDPRKAMLSQMNVTAPTSPPVQQNMMNSASGPLPDGWEQAMTQDGEIYYINHKNKTTSWLDPRLDPRFAMNQ

Key:
Assay in all cases: ITC
LATS2 = target: T1, LATS2
LATS1-b = target: T2, LATS1-b
PTCH1-a = target: T3, PTCH1-a
PTCH1-b = target: T4, PTCH1-b
LATS1-a = target: T5, LATS1-a

Row | Binder | Kd (LATS2) [µM] | Kd (LATS1-b) [µM] | Kd (PTCH1-a) | Kd (PTCH1-b) [µM] | Kd (LATS1-a) [µM]
1 | B1 | 7.1 | 3.7 | 27.6 µM | 13.2 | 21.5
2 | B2 | 8.2 | 33.9 | 45.8 µM | – | 27
3 | B3 | 9.2 | – | 47.4 µM and 24.7 µM | 16.9 | 33.4
